The text below walks through data of article PMC11501004.

The target in this experiment is GST-LEA12^OR (Oryza rufipogon Griff.). Put plainly: MST. The following applies: scale: fold.

B1: MBP-OsSAPK10 (natural protein)
chain: MDRAALTVGPGMDMPIMHDGDRYELVRDIGSGNFGVARLMRSRADGQLVAVKYIERGDKIDENVQREIINHRSLRHPNIIRFKEVILTPTHLAIVMEYASGGELFERICNAGRFSEDEARFFFQQLISGVSYCHSMQVCHRDLKLENTLLDGSTAPRLKICDFGYSKSSVLHSQPKSTVGTPAYIAPEVLLKKEYDGKIADVWSCGVTLYVMLVGAYPFEDPDEPKNFRKTIQRILGVQYSIPDYVHISPECRDLIARIFVANPATRISIPEIRNHPWFLKNLPADLMDDSKMSSQYEEPEQPMQSMDEIMQILAEATIPAAGSGGINQFLNDGLDLDDDMEDLDSDPDLDVESSGEIVYAM
With B1, the Kd relative to that of LEA12^93-11 turned out to be 0.143.
